The values that follow come from patent publication US20180086849A1 (Hoffmann-La Roche, published 2018).

The target in test [1] is T1, hu-MCSP(D3 domain)-avi-his (human, UniProt Q6UVK1 1582-2224, biotinylated where used for selection or for coupling to the SA chip).
T1 construct: also called human MCSP(D3 domain)-avi-his; human MCSP D3
T1 sequence: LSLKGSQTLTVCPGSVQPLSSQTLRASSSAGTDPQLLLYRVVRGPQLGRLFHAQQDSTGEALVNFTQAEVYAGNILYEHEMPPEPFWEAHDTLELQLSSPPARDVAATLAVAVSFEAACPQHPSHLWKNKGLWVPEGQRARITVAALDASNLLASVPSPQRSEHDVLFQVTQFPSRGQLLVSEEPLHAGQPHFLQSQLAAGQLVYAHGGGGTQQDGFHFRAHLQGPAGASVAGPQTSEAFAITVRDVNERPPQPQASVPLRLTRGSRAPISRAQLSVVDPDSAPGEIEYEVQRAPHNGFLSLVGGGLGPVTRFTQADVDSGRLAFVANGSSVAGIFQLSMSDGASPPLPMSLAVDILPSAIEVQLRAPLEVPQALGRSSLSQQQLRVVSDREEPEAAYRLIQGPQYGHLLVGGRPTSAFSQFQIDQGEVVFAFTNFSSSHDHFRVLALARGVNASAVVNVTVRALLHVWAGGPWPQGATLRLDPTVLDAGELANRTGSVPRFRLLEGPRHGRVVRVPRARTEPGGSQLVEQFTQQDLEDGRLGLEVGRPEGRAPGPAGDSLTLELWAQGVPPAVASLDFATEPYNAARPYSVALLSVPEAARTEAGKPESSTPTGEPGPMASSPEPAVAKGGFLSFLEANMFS
Put plainly: SPR (ProteOn XPR36), IgG KD against parental M4-3/ML2. The method, then: (§1) Briefly, carboxymethylated dextran biosensor chips (CM5, GE Healthcare) were activated with N-ethyl-N′-(3-dimethylaminopropyl)-carbodiimide hydrochloride (EDC) and N-hydroxysuccinimide (NHS) according to the supplier's instructions. Anti-human F(ab′)2 fragment specific capture antibody was diluted with 10 mM sodium acetate, pH 5.0 at 50 μg/ml before injection at a flow rate of 10 μl/minute to achieve approximately up to 10.000 response units (RU) of coupled capture antibody. Following the injection of the capture antibody, 1 M ethanolamine was injected to block unreacted groups. For kinetics measurements, Fabs from bacterial supernatant or purified Fabs are injected at a flow rate of 10 ul/minute for 300 s and a dissociation of 300 s for capture baseline stabilization. […] The surface of the sensorchip was regenerated by injection of glycine pH 1.5 for 30 s at 90 ul/min followed by injection of NaOH for 20 s at the same flow rate. Association rates (kon) and dissociation rates (koff) were calculated using a simple one-to-one Langmuir binding model (ProteOn XPR36 Evaluation Software or Scrubber software (BioLogic)) by simultaneously fitting the association and dissociation sensorgrams. The equilibrium dissociation constant (KD) was calculated as the ratio koff/kon. […] Since CDR1 and 2 of the light chain were randomized independent from CDR3, the obtained CDRs were combined during IgG conversion.
(§2) In the IgG format affinities were measured again to the human MCSP antigen (SEQ ID NO. 390), in addition also to the cynomolgus homologue (SEQ ID NO. 389). Method exactly as described for the Fab fragments, just purified IgG from mammalian production were used.

The next test concerns the target T2, cynomolgus MCSP D3 (cynomolgus, UniProt Q6UVK1 1582-2224 (human entry)).
T2 construct: also called cynomolgus homologue; not shown: C-terminal tag
T2 chain: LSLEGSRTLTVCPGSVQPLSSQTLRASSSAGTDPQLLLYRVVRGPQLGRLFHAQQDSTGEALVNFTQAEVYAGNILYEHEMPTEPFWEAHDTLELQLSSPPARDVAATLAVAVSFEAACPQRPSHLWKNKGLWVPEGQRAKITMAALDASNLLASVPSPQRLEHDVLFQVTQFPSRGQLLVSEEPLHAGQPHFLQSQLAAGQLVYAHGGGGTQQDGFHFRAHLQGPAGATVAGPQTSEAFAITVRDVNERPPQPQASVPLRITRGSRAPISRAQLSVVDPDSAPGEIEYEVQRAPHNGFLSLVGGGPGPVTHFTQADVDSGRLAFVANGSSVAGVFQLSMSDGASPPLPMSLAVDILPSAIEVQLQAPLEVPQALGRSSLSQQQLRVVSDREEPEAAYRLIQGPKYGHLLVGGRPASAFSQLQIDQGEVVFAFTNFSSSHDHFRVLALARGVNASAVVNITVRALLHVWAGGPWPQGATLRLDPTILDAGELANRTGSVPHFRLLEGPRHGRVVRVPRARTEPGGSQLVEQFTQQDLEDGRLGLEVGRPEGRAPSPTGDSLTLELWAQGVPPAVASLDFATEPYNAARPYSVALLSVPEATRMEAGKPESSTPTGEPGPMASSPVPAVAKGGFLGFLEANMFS
Described as above. The procedure: as §1, §2

For test [2], the target named is human MCSP (Melanoma-associated Chondroitin Sulfate Proteoglycan) on cells (human, UniProt Q6UVK1 30-2322). Description: cell-based or functional assay.
human MCSP (Melanoma-associated Chondroitin Sulfate Proteoglycan) on cells, sequence (Q6UVK1 30-2322): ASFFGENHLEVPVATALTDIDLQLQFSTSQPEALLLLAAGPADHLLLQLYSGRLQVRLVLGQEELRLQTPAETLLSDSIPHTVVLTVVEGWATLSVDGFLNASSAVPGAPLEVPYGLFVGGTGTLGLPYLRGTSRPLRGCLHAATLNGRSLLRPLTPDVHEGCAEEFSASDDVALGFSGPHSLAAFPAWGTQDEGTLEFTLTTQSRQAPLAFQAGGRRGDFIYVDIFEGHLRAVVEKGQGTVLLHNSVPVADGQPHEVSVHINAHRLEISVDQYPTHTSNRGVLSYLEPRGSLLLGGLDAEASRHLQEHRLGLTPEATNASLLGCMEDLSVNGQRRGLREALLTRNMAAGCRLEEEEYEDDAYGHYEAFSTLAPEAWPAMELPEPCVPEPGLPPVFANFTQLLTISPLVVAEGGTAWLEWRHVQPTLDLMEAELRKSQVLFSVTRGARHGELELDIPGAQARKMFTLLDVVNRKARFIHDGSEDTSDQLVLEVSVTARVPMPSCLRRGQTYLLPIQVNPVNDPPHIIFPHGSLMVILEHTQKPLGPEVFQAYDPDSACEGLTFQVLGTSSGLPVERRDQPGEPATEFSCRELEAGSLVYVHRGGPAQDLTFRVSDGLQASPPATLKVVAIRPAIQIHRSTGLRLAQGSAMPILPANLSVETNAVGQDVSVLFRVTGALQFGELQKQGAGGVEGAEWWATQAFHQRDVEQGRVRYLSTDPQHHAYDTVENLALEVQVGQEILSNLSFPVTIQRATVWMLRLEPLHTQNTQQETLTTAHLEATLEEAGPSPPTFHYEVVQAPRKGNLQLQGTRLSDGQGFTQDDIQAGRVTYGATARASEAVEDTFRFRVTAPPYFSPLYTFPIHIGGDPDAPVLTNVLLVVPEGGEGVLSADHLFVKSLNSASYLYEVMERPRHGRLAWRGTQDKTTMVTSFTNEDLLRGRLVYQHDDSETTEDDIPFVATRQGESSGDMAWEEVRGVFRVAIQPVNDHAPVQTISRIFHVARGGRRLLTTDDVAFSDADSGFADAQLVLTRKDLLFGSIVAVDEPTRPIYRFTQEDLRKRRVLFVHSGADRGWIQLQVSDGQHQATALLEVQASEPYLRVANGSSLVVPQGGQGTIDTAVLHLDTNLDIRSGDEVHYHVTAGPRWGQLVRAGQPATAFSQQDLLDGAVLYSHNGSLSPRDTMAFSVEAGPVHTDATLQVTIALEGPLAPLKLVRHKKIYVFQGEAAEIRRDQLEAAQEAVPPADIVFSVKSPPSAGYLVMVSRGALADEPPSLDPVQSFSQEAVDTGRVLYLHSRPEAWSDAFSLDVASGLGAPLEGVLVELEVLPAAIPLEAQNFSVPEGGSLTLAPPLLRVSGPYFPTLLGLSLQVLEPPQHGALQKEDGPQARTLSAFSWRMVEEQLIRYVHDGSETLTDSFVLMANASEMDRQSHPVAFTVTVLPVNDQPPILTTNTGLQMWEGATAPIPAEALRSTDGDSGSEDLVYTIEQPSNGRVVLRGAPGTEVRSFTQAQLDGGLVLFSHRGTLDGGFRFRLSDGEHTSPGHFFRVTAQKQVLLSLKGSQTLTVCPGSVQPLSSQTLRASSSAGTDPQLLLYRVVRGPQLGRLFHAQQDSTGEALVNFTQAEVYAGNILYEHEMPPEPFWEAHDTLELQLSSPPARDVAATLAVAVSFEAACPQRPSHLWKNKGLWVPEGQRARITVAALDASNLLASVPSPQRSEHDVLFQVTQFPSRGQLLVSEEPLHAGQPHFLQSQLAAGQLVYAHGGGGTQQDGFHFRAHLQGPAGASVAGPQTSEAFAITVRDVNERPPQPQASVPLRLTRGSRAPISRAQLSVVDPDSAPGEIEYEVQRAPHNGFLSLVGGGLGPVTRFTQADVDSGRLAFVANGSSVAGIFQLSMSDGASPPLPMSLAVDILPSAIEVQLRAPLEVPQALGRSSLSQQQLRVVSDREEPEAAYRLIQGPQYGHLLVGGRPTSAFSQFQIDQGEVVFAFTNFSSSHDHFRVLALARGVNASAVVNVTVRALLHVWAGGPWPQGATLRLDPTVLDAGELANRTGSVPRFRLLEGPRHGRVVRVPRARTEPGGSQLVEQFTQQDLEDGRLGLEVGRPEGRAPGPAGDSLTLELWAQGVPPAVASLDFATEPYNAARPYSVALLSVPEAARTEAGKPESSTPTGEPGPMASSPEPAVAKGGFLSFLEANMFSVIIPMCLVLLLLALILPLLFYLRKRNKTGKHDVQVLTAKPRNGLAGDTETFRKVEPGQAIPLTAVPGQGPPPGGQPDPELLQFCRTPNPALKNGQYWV

B1: M4-3/ML2 (E10/G3) (IgG) (antibody, V domains shown)
VH: QVQLQESGPGLVKPSQTLSLTCTVSGGSITSGYYWNWIRQHPGKGLEWIGYITYDGSNNYNPSLKSRVTISRDTSKNQFSLKLSSVTAADTAVYYCADFDYWGQGTLVTVSS
VL: DIQMTQSPSSLSASVGDRVTITCRASYGIRGYLNWYQQKPGKAPKLLIYYTSSLHSGVPSRFSGSGSGTDFTLTISSLQPEDFATYHCQQYSALPWTFGQGTKVEIK
notes: Human IgG1 format
With B1, the entries for the “Comparative binding affinity - Fold increase over parent” value (in test [1]; in the test with cynomolgus MCSP D3) were 5 fold and 2.2 fold, respectively.

B2: M4-3(C1)/ML2(G3) (IgG) (antibody, V domains shown)
VH: QVQLQESGPGLVKPSQTLSLTCTVSGGSITSGYYWNWIRQHPGKGLEWIGYITFDGSNNYNPSLKSRVTISRDTSKNQFSLKLSSVTAADTAVYYCADFDYWGQGTLVTVSS
VL: DIQMTQSPSSLSASVGDRVTITCRASQGIRNYLNWYQQKPGKAPKLLIYYTSSLHSGVPSRFSGSGSGTDYTLTISSLQPEDFATYYCQQYSALPWTFGQGTKVEIKR
notes: Human IgG1; also called MCSP M4-3(C1) ML2(G3)
For the molecule B2, the “Comparative binding affinity - Fold increase over parent” value in test [1] came to 28.6 fold; in the test with cynomolgus MCSP D3, 10 fold.

B3: 1+1 IgG Crossfab; VL/VH exchange (LC007/V9), anti-MCSP/anti-huCD3 (bispecific antibody)
chain 1: DIVLTQSPSSLSASLGDRVTISCSASQGIRNYLNWYQQRPDGTVKLLIYYTSSLHSGVPSRFSGSGSGTDYSLTISNLEPEDIATYYCQQYSKLPWTFGGGTKLEIKRTVAAPSVFIFPPSDEQLKSGTASVVCLLNNFYPREAKVQWKVDNALQSGNSQESVTEQDSKDSTYSLSSTLTLSKADYEKHKVYACEVTHQGLSSPVTKSFNRGEC
chain 2: DIQMTQSPSSLSASVGDRVTITCRASQDIRNYLNWYQQKPGKAPKLLIYYTSRLESGVPSRFSGSGSGTDYTLTISSLQPEDFATYYCQQGNTLPWTFGQGTKVEIKSSASTKGPSVFPLAPSSKSTSGGTAALGCLVKDYFPEPVTVSWNSGALTSGVHTFPAVLQSSGLYSLSSVVTVPSSSLGTQTYICNVNHKPSNTKVDKKVEPKSCGGGGSGGGGSEVQLQESGPGLVKPSQSLSLTCSVTGYSITSGYYWNWIRQFPGNKLEWMGYITYDGSNNYNPSLKNRISITRDTSKNQFFLKLNSVTTEDTATYYCADFDYWGQGTTLTVSSASTKGPSVFPLAPSSKSTSGGTAALGCLVKDYFPEPVTVSWNSGALTSGVHTFPAVLQSSGLYSLSSVVTVPSSSLGTQTYICNVNHKPSNTKVDKKVEPKSCDKTHTCPPCPAPEAAGGPSVFLFPPKPKDTLMISRTPEVTCVVVDVSHEDPEVKFNWYVDGVEVHNAKTKPREEQYNSTYRVVSVLTVLHQDWLNGKEYKCKVSNKALGAPIEKTISKAKGQPREPQVCTLPPSRDELTKNQVSLSCAVKGFYPSDIAVEWESNGQPENNYKTTPPVLDSDGSFFLVSKLTVDKSRWQQGNVFSCSVMHEALHNHYTQKSLSLSPGK
chain 3: EVQLVESGGGLVQPGGSLRLSCAASGYSFTGYTMNWVRQAPGKGLEWVALINPYKGVSTYNQKFKDRFTISVDKSKNTAYLQMNSLRAEDTAVYYCARSGYYGDSDWYFDVWGQGTLVTVSSASVAAPSVFIFPPSDEQLKSGTASVVCLLNNFYPREAKVQWKVDNALQSGNSQESVTEQDSKDSTYSLSSTLTLSKADYEKHKVYACEVTHQGLSSPVTKSFNRGEC
chain 4: not shown
On to B3, for which, in test [2], the “EC50 of T cell-mediated killing (LDH release) of MV-3 cells, human PBMCs, 21 h” value was 0.0409 nM and the “EC50 of T cell-mediated killing (LDH release) of WM266-4 cells, human PBMCs, 21 h” value turned out to be 0.0284 nM.

B4: 1+1 CrossMab; CL/CH1 exchange (LC007/V9), anti-MCSP/anti-huCD3 (bispecific antibody, human IgG1, kappa, L234A L235A)
chain 1: DIVLTQSPSSLSASLGDRVTISCSASQGIRNYLNWYQQRPDGTVKLLIYYTSSLHSGVPSRFSGSGSGTDYSLTISNLEPEDIATYYCQQYSKLPWTFGGGTKLEIKRTVAAPSVFIFPPSDEQLKSGTASVVCLLNNFYPREAKVQWKVDNALQSGNSQESVTEQDSKDSTYSLSSTLTLSKADYEKHKVYACEVTHQGLSSPVTKSFNRGEC
chain 2: EVQLQESGPGLVKPSQSLSLTCSVTGYSITSGYYWNWIRQFPGNKLEWMGYITYDGSNNYNPSLKNRISITRDTSKNQFFLKLNSVTTEDTATYYCADFDYWGQGTTLTVSSASTKGPSVFPLAPSSKSTSGGTAALGCLVKDYFPEPVTVSWNSGALTSGVHTFPAVLQSSGLYSLSSVVTVPSSSLGTQTYICNVNHKPSNTKVDKKVEPKSCDKTHTCPPCPAPEAAGGPSVFLFPPKPKDTLMISRTPEVTCVVVDVSHEDPEVKFNWYVDGVEVHNAKTKPREEQYNSTYRVVSVLTVLHQDWLNGKEYKCKVSNKALGAPIEKTISKAKGQPREPQVCTLPPSRDELTKNQVSLSCAVKGFYPSDIAVEWESNGQPENNYKTTPPVLDSDGSFFLVSKLTVDKSRWQQGNVFSCSVMHEALHNHYTQKSLSLSPGK
chain 3: DIQMTQSPSSLSASVGDRVTITCRASQDIRNYLNWYQQKPGKAPKLLIYYTSRLESGVPSRFSGSGSGTDYTLTISSLQPEDFATYYCQQGNTLPWTFGQGTKVEIKSSASTKGPSVFPLAPSSKSTSGGTAALGCLVKDYFPEPVTVSWNSGALTSGVHTFPAVLQSSGLYSLSSVVTVPSSSLGTQTYICNVNHKPSNTKVDKKVEPKSC
chain 4: not shown
With B4, in test [2], the “EC50 of T cell-mediated killing (LDH release) of MV-3 cells, human PBMCs, 21 h” value was 0.0884 nM and the “EC50 of T cell-mediated killing (LDH release) of WM266-4 cells, human PBMCs, 21 h” value is 0.0539 nM.

B5: 2+1 IgG Crossfab; CL/CH1 exchange (M4-3 ML2/V9), anti-MCSP/anti-huCD3 (bispecific antibody)
chain 1: DIQMTQSPSSLSASVGDRVTITCRASQDIRNYLNWYQQKPGKAPKLLIYYTSRLESGVPSRFSGSGSGTDYTLTISSLQPEDFATYYCQQGNTLPWTFGQGTKVEIKSSASTKGPSVFPLAPSSKSTSGGTAALGCLVKDYFPEPVTVSWNSGALTSGVHTFPAVLQSSGLYSLSSVVTVPSSSLGTQTYICNVNHKPSNTKVDKKVEPKSC
chain 2: not shown
chain 3: QVQLQESGPGLVKPSQTLSLTCTVSGGSITSGYYWNWIRQHPGKGLEWIGYITYDGSNNYNPSLKSRVTISRDTSKNQFSLKLSSVTAADTAVYYCADFDYWGQGTLVTVSSASTKGPSVFPLAPSSKSTSGGTAALGCLVKDYFPEPVTVSWNSGALTSGVHTFPAVLQSSGLYSLSSVVTVPSSSLGTQTYICNVNHKPSNTKVDKKVEPKSCDKTHTCPPCPAPEAAGGPSVFLFPPKPKDTLMISRTPEVTCVVVDVSHEDPEVKFNWYVDGVEVHNAKTKPREEQYNSTYRVVSVLTVLHQDWLNGKEYKCKVSNKALGAPIEKTISKAKGQPREPQVCTLPPSRDELTKNQVSLSCAVKGFYPSDIAVEWESNGQPENNYKTTPPVLDSDGSFFLVSKLTVDKSRWQQGNVFSCSVMHEALHNHYTQKSLSLSPGK
chain 4: not shown
Consider B5, for which, in test [2], the “EC50 of T cell-mediated killing (LDH release) of MV-3 cells, human PBMCs, 27 h” value was about 0.0117 nM and the “EC50 of T cell-mediated killing (LDH release) of WM266-4 cells, human PBMCs, 26 h” value was determined as 0.0129 nM.
